Measurements reported in patent publication US20230049152A1 (Genentech, published 2023).

How the values were obtained:
GST-FcgR3a.F158 [1] = target: T1, GST-FcgR3a.F158 (UniProt P08637 17-208, limits assumed); experiment: ELISA, GST-FcgR3a.F158 captured by anti-GST antibody
T1 construct: Captured by anti-GST antibody on ELISA plate; also called FcgR3a.F158 protein; Fcgamma RIIIa F158; not shown: GST tag
Experimental: (§1) The binding of fucosylated and afucosylated variants of hu.Ab5.H13L1 and hu.Ab4.H12L3 to both FcgR3a proteins by ELISA was studied. Briefly, an anti-GST antibody was coated on Nunc Maxisorp plates. GST-FcgR3a.V158 and GST-FcgR3a.F158 were captured at 500 ng/mL. Plates were then washed and then serially diluted anti-CCR8 antibodies starting at 100 ug/mL were incubated on the plate for 1 hour at room temperature. Plates were washed and bound antibody was detected by a HRP-conjugated anti-human IgG secondary antibody. Absorbance at 450 nm was measured by a plate reader. The data were fitted using a 4-parameter logistic curve in Softmax Pro.

GST-FcgR3a.V158 [2] = target: T2, GST-FcgR3a.V158 (UniProt P08637 17-208, limits assumed); experiment: ELISA, GST-FcgR3a.V158 captured by anti-GST antibody
T2 construct: Captured by anti-GST antibody on ELISA plate; also called FcgR3a.V158 protein; Fcgamma RIIIa V158; not shown: GST tag
Experimental: as §1

GST-FcgR3a.F158 [3] = target: T1, GST-FcgR3a.F158; experiment: ELISA, GST-FcgR3a captured by anti-GST antibody
Experimental: as §1

GST-FcgR3a.V158 [4] = target: T2, GST-FcgR3a.V158; experiment: ELISA, GST-FcgR3a captured by anti-GST antibody
Experimental: as §1

human CCR8 [5] = target: T3, human CCR8 (human, UniProt P51685 1-355); experiment: cell-based or functional assay
cyno CCR8 = target: T4, cyno CCR8 (cynomolgus monkey, UniProt O97665 1-356 (rhesus entry)); experiment: whole-blood flow cytometry of cyno blood spiked ex vivo with a saturating concentration of the antibody, detected with labeled goat anti-human IgG on FoxP3+ T-reg cells; relative percentage of CCR8+ T-reg cells
T4 construct: also called cynomolgus monkey CCR8
Experimental: Blood was collected from each of the animals before dosing (“Pre-study”), as well as on Day 1 at 0 hours (“Pre-dose”). Each of the animals were then administered a single dose of 10 mg/kg afucosylated anti-gD (Control Group), Afuc.hu.Ab5.H13L1 (Group 2) or Afuc.hu.Ab4.H12L3 (Group 3) via intravenous injection. Blood was then collected from the animals and subjected to the following treatment prior to flow cytometry analysis: (i) blood sample not spiked with either test CCR8 mAb (“unspiked”), (ii) blood sample further spiked with a saturating concentration of Afuc.hu.Ab5.H13L1, and (iii) blood sample further spiked with a saturating concentration of Afuc.hu.Ab4.H12L3. Each of the unspiked and spiked samples were subsequently treated with a labeled goat anti-human IgG antibody and analyzed by flow cytometry. […] Furthermore, flow cytometry of spiked blood also had very little effect on the total CCR8+T-reg cell count.
Anti-CCR8 antibodies Afuc.hu.Ab5.H13L1, Afuc.hu.Ab4.H12L3, and the control anti-gD were used for this study.

human CCR8 [6] = target: T3, human CCR8; experiment: cell-based or functional assay; remark: listed apart in the source
human CCR8 [7] = target: T3, human CCR8; experiment: flow cytometry, human colorectal cancer dissociated tumor cells, 2 ug/mL mAb, AF647 anti-human IgG; CCR8 read on Treg cells
Experimental: The mAbs were evaluated for binding to regulatory T cells (Treg cells or Tregs) by Fluorescence-Activated Cell Sorting (FACS) flow cytometry. Human colorectal dissociated tumor cells (DTC) (Discovery Life Sciences) were thawed according to vendor's protocol. Cells were surface stained with eFluor 780-conjugated Fixable Viability Dye (ThermoFisher Scientific) and 2 ug/mL mAb specific for CCR8, OX40 (positive control), Herceptin (negative control), or anti-hIgG (negative control) for 20 min at 4° C. followed by secondary detection with AF647-conjugated AffiniPure F(ab′)2 Fragment Goat anti-Human IgG, Fcg fragment-specific (Jackson ImmunoResearch) for 10 min at 4° C. Cells were then intracellularly stained using the eBioscience Foxp3/Transcription Factor Staining Buffer Set (ThermoFisher Scientific) according to the manufacturer's protocol. […] Shown in FIG. 1 are mean fluorescent intensity (MFI) values for CD8 T cells (defined as CD45+CD14−CD3+CD8+CD4−) (circles, ◯), conventional CD4 T cells (defined as CD45+CD14−CD3+CD8−CD4+FOXP3−) (squares, □), and Treg cells (defined as CD45+CD14−CD3+CD8−CD4+FOXP3+) (triangles, ▴). Three of the five CCR8 mAb clones specifically stained Treg cells and not conventional CD4 or CD8 T cells and were ranked according to CCR8 MFI, greater than 500 MFI: hu.Ab4.H1L1>hu.Ab5.H1L1>hu.Ab3.H1L1. […]

T2 sequence (P08637 17-208 F176V limits assumed): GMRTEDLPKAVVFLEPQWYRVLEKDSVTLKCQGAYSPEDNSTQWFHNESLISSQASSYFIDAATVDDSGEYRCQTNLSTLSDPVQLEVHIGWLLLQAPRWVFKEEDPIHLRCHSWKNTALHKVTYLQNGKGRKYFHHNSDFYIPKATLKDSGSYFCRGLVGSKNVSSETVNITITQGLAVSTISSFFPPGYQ
T1 sequence (P08637 17-208 limits assumed): as the sequence (P08637 17-208 F176V limits assumed) above, with V160F counted along it
T4 sequence (O97665 other isoform, or with tags, fused parts or gaps): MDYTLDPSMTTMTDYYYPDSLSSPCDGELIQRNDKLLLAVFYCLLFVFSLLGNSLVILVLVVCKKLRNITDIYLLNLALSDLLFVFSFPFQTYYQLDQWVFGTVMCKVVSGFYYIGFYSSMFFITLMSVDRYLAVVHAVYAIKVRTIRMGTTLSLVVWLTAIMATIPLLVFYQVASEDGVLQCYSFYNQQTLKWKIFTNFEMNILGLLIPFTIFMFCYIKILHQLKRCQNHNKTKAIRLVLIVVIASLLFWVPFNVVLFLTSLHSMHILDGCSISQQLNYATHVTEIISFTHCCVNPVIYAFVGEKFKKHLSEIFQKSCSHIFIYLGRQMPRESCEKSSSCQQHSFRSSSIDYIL

Binder | EC50 (GST-FcgR3a.F158 [1]) | EC50 (GST-FcgR3a.V158 [2]) | fold increase in binding potency versus fucosylated counterpart (GST-FcgR3a.F158 [3]) | fold increase in binding potency versus fucosylated counterpart (GST-FcgR3a.V158 [4]) | ADCP EC50, macrophages HR/FF (FIG. 14A) (human CCR8 [5]) | ADCP EC50, macrophages HR/FF (FIG. 14E) (human CCR8 [5]) | ADCP EC50, macrophages HR/VF (FIG. 14C) (human CCR8 [5]) | ADCP EC50, macrophages RR/FF (FIG. 14B) (human CCR8 [5]) | ADCP EC50, macrophages RR/VF (FIG. 14D) (human CCR8 [5]) | binding result (cyno CCR8) | ADCC EC50, NK-92 F158 cells (FIG. 11A) (human CCR8 [6]) | ADCC EC50, NK-92 F158 cells (FIG. 11C) (human CCR8 [6]) | ADCC EC50, NK-92 V158 cells (FIG. 11B) (human CCR8 [6]) | binding result (human CCR8 [7])
Afuc.hu.Ab5.H13L1 (antibody, human IgG1, kappa, afucosylated Fc N-glycan at position Asn299; between about 80% to about 95% afucosylation, also called Afuc.Ab5.H13L1; afucosylated hu.Ab5.H13L1) heavy: not shown light: DIQVTQSPSSLSASVGDRVTITCQASENIANALAWYQQKPGKPPKFLIYGASNLASGVPSRFSGSGSGTDFTFTISSLQPEDIATYYCQQAYYGNSFVEGTFGGGTKVEIKRTVAAPSVFIFPPSDEQLKSGTASVVCLLNNFYPREAKVQWKVDNALQSGNSQESVTEQDSKDSTYSLSSTLTLSKADYEKHKVYACEVTHQGLSSPVTKSFNRGEC | 0.101 µg/mL | 0.035 µg/mL | ~10 fold | ~10 fold | 17 pM | 22 pM | 10 pM | 200 pM | 500 pM | binds | 4.7 pM | 3 pM | 7.3 pM | –
hu.Ab2.H1L1 (antibody, human IgG1, kappa, V domains shown, humanized rabbit anti-CCR8 antibody, human IgG1) VH: EQQLVESGGGVVQPGRSLRLSCAASGFSFSYGYDMCWVRQAPGKGLEWIACISAGSSDNTWYASWAKGRFTISKDTSKTTVYLQMNSLRAEDTAVYFCSRYLGLWGPGTLVTVSS VL: EQVLTQSPGTLSLSPGERATLSCQSSKSVNNNNLAWYQQKPGQPPRLLIYFASALASGVPDRFSGSGSGTDFTLTISRLEPEDFAVYYCQGAYSGGSDSYAFGGGTKVEIKR | – | – | – | – | – | – | – | – | – | – | – | – | – | binds
